Reference: US20160251409A1

Biological target: GPIIb/IIIa receptor on platelets (human) (UniProt P08514)
Experiment: cell-based or functional assay

## Abciximab (ReoPro®) (Fab)
  Platelet aggregation, 30 nM, SFLLRN 10 µM activated platelets: 60.7 % of control
